# Test results as given in WO2010082134A1 (dated 2010).
# T1: B. anthracis lethal factor (LF) (Bacillus anthracis, UniProt P15917 34-809)
# T1 sequence: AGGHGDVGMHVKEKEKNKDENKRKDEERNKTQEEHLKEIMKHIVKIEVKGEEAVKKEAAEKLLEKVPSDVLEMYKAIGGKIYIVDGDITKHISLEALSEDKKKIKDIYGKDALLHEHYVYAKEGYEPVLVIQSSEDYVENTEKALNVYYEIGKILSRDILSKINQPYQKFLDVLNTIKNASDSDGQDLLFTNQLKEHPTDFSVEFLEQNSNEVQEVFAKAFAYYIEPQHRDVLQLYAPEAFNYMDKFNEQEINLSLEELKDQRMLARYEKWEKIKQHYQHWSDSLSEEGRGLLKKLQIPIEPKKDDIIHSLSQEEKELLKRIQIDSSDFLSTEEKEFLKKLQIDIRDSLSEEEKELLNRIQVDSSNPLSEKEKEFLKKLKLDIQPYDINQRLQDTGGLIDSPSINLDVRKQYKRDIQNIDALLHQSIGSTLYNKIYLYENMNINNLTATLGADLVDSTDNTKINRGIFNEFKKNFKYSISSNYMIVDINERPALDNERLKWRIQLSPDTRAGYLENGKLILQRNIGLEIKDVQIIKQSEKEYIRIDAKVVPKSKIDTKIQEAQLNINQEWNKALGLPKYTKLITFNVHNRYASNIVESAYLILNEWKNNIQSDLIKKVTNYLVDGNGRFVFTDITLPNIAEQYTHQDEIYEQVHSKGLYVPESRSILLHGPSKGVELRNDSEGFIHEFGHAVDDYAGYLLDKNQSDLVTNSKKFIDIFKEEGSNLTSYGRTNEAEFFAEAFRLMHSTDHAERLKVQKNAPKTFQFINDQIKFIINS
# Key:
# [1] = molecular target: B. anthracis protective antigen (PA) (Bacillus anthracis, UniProt P13423 30-764); assay: hybridoma screening by ELISA for anti-PA antibodies
# Chain of B. anthracis protective antigen (PA) (P13423 30-764 limits assumed): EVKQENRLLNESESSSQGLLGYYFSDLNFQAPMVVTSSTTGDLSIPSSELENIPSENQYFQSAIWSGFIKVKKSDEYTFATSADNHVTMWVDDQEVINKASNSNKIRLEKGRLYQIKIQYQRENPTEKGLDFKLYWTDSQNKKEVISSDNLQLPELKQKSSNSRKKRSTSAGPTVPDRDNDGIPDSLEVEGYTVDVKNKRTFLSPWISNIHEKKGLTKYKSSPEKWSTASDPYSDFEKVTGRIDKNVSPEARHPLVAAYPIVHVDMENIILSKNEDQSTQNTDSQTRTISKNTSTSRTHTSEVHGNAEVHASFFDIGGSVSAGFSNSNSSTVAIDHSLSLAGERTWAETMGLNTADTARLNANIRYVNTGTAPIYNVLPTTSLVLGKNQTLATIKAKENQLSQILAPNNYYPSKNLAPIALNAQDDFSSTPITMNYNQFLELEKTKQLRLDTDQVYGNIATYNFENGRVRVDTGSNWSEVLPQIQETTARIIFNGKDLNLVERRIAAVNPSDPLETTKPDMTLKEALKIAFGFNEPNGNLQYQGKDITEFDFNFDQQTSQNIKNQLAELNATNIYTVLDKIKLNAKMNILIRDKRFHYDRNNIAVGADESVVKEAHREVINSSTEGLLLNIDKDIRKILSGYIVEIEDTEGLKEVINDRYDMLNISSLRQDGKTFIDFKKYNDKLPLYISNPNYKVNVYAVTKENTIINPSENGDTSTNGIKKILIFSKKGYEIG
# [2] = molecular target: T1, B. anthracis lethal factor (LF); assay: hybridoma screening by ELISA for anti-LF antibodies
Binder,binding result [1],binding result [2]
"human monoclonal antibody IQNPA (antibody, V domains shown) VH: QVQLVQSGAEVKKPGASVKVSCKASGYTFTSNAIQWVRQAPGQRLEWVGWINGGDGNTKYSQKFQGRVTISRDISASTAYMELSSLRSEDTAVYYCARHRLQRGGFDPWGQGTLVTVSS VL: EIVLTQSPGTLSLSPGERATLSCRASQSVSYSSLAWYQQKPGQAPSLLIYGASSRATGIPDRFSGSGSGPDFTLTISRLEPEDFAVYYCQHYGNSPYTFGQGTKLEIKR",binds,–
"human monoclonal antibody IQNLF (antibody, V domains shown) VH: EVQLLESGGGLVQPGGSLRLSCSGSGFMFSSYAMSWVRQAPGKGLEWVSGISGSGGTTNYADSVKGRFTISRDNSKNTLYMQMNSLRAEDTAVYYCAKDGVYGRLGGSDYWGQGTLVTVSS VL: EIVLTQSPDFQSVSPKEKVTITCRASQSVGSSLHWYQQKPDQSPKLLIKYASQSFSGVPSRFSGSGSGTDFTLTINSLETEDAATYYCHQSSSLPLTFGGGTKVEIKR",–,binds
